Measured values reported in patent publication US20180155451A1 (published 2018).

T1: FcγRIIb extracellular domain with C-terminal His tag (human, UniProt P31994 43-217)
T1 construct: extracellular domain; also called FcgRIIb; 2b; not shown: His tag at the C terminus
T1 sequence (looked up): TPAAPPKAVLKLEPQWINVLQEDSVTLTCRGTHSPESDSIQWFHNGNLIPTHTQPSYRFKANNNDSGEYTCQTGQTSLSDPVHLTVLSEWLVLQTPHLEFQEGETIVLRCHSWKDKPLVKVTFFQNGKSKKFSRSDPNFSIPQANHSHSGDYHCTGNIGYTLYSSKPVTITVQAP

T2: FcγRIIa H (FcγRIIa type H, His at position 131), extracellular domain with C-terminal His tag (human, UniProt P12318 34-217)
T2 construct: extracellular domain; also called 2aH; FcgRIIa H; not shown: His tag at the C terminus
T2 sequence (looked up): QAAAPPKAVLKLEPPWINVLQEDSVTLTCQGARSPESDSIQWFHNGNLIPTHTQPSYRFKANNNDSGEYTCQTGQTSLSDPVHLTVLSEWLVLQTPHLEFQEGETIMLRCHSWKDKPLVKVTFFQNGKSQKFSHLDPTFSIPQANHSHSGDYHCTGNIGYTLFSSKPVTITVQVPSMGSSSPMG

T3: FcγRIIb, extracellular domain with C-terminal His tag (human, UniProt P31994 43-217)
T3 construct: extracellular domain; also called 2b; FcgRIIb; not shown: His tag at the C terminus
T3 sequence (looked up): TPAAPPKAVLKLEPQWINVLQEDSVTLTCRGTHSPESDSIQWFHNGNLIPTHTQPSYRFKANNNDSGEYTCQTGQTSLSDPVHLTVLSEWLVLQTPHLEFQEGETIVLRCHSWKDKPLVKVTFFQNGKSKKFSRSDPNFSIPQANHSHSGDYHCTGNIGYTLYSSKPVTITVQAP

B1: GpH7-A5/GpH7-B3 variant Q295_09D/GpL16-k0 (antibody, human IgG1, kappa)
heavy 1: not shown
heavy 2: not shown
light: DIVMTQSPLSLPVTPGEPASISCQASESLVHSNRNTYLHWYLQKPGQSPQLLIYKVSNRFSGVPDRFSGSGSGTDFTLKISRVEAEDVGVYYCSQNTHVPPTFGQGTKVEIERTVAAPSVFIFPPSDEQLKSGTASVVCLLNNFYPREAKVQWKVDNALQSGNSQESVTEQDSKDSTYSLSSTLTLSKADYEKHKVYACEVTHQGLSSPVTKSFNRGEC
notes: He Ab: the mutation stands only in the GpH7-B3-derived H chain; also called He Ab Q295D
B2: GpH7-A5/GpH7-B3 variant S239_09D/GpL16-k0 (antibody, human IgG1, kappa)
heavy 1: not shown
heavy 2: not shown
light: DIVMTQSPLSLPVTPGEPASISCQASESLVHSNRNTYLHWYLQKPGQSPQLLIYKVSNRFSGVPDRFSGSGSGTDFTLKISRVEAEDVGVYYCSQNTHVPPTFGQGTKVEIERTVAAPSVFIFPPSDEQLKSGTASVVCLLNNFYPREAKVQWKVDNALQSGNSQESVTEQDSKDSTYSLSSTLTLSKADYEKHKVYACEVTHQGLSSPVTKSFNRGEC
notes: Heterodimerized IgG1 (He Ab); mutation only in the GpH7-B3 chain; also called He Ab S239D
B3: GpH7-A5/GpH7-B3 variant D270_13S/GpL16-k0 (antibody, human IgG1, kappa)
heavy 1: not shown
heavy 2: not shown
light: DIVMTQSPLSLPVTPGEPASISCQASESLVHSNRNTYLHWYLQKPGQSPQLLIYKVSNRFSGVPDRFSGSGSGTDFTLKISRVEAEDVGVYYCSQNTHVPPTFGQGTKVEIERTVAAPSVFIFPPSDEQLKSGTASVVCLLNNFYPREAKVQWKVDNALQSGNSQESVTEQDSKDSTYSLSSTLTLSKADYEKHKVYACEVTHQGLSSPVTKSFNRGEC
notes: He Ab: the mutation stands only in the GpH7-B3-derived H chain; also called He Ab D270S
B4: GpH7-A5/GpH7-B3 variant D270_18N/GpL16-k0 (antibody, human IgG1, kappa)
heavy 1: not shown
heavy 2: not shown
light: DIVMTQSPLSLPVTPGEPASISCQASESLVHSNRNTYLHWYLQKPGQSPQLLIYKVSNRFSGVPDRFSGSGSGTDFTLKISRVEAEDVGVYYCSQNTHVPPTFGQGTKVEIERTVAAPSVFIFPPSDEQLKSGTASVVCLLNNFYPREAKVQWKVDNALQSGNSQESVTEQDSKDSTYSLSSTLTLSKADYEKHKVYACEVTHQGLSSPVTKSFNRGEC
notes: He Ab: the mutation stands only in the GpH7-B3-derived H chain; also called He Ab D270N
B5: GpH7-A5/GpH7-B3 variant D270_19Q/GpL16-k0 (antibody, human IgG1, kappa)
heavy 1: not shown
heavy 2: not shown
light: DIVMTQSPLSLPVTPGEPASISCQASESLVHSNRNTYLHWYLQKPGQSPQLLIYKVSNRFSGVPDRFSGSGSGTDFTLKISRVEAEDVGVYYCSQNTHVPPTFGQGTKVEIERTVAAPSVFIFPPSDEQLKSGTASVVCLLNNFYPREAKVQWKVDNALQSGNSQESVTEQDSKDSTYSLSSTLTLSKADYEKHKVYACEVTHQGLSSPVTKSFNRGEC
notes: He Ab: the mutation stands only in the GpH7-B3-derived H chain; also called He Ab D270Q
B6: GpH7-A5/GpH7-B3 variant Q295_02A/GpL16-k0 (antibody, human IgG1, kappa)
heavy 1: not shown
heavy 2: not shown
light: DIVMTQSPLSLPVTPGEPASISCQASESLVHSNRNTYLHWYLQKPGQSPQLLIYKVSNRFSGVPDRFSGSGSGTDFTLKISRVEAEDVGVYYCSQNTHVPPTFGQGTKVEIERTVAAPSVFIFPPSDEQLKSGTASVVCLLNNFYPREAKVQWKVDNALQSGNSQESVTEQDSKDSTYSLSSTLTLSKADYEKHKVYACEVTHQGLSSPVTKSFNRGEC
notes: He Ab: the mutation stands only in the GpH7-B3-derived H chain; also called He Ab Q295A
B7: GpH7-A5/GpH7-B3 variant P271_20W/GpL16-k0 (antibody, human IgG1, kappa)
heavy 1: not shown
heavy 2: not shown
light: DIVMTQSPLSLPVTPGEPASISCQASESLVHSNRNTYLHWYLQKPGQSPQLLIYKVSNRFSGVPDRFSGSGSGTDFTLKISRVEAEDVGVYYCSQNTHVPPTFGQGTKVEIERTVAAPSVFIFPPSDEQLKSGTASVVCLLNNFYPREAKVQWKVDNALQSGNSQESVTEQDSKDSTYSLSSTLTLSKADYEKHKVYACEVTHQGLSSPVTKSFNRGEC
notes: He Ab: the mutation stands only in the GpH7-B3-derived H chain; also called He Ab P271W

Experiments:
[1] = molecular target: T4, FcγRIIIa extracellular domain with C-terminal His tag (human, UniProt P08637 17-208); assay: ratio of He/Con_3a to He/Con_2b (FcγRIIIa over FcγRIIb), SPR relative binding
T4 construct: extracellular domain; also called FcgRIIIa; 3a; not shown: His tag at the C terminus
Description: (§1) The heterodimerized antibodies He Abs in which one of the H chains was introduced with an alteration were assayed for their binding activities to each activating FcγR and inhibitory FcγR according to the method described in Example 4. […] The activating FcγRs in FIGS. 26, 27, 28, and 29 are FcγRIa, FcγRIIa (R), FcγRIIa (H), and FcγRIIIa, respectively.
(§2) Analysis of interaction between objective antibody and the FcγR was carried out using Biacore T100 (GE Healthcare). HBS-EP+ (GE Healthcare) was used as the running buffer, and the measurement temperature was set to 25° C. Chips produced by immobilizing the antigen peptide by the amine coupling method to a Series S Sencor Chip CM5 (GE Healthcare), or alternatively, chips produced by allowing preliminarily biotinylated antigen peptides to interact with and immobilize onto a Series S Sensor Chip SA (certified) (GE Healthcare) were used. Antibodies of interest were captured onto an antigen peptide-immobilized chip, and allowed to interact to each FcγR diluted with running buffer. To regenerate and repeatedly use the chip, the antibodies captured on the chip were washed off by reacting 10 mM glycine-HCl, pH 1.5.

[2] = molecular target: T1, FcγRIIb extracellular domain with …; assay: SPR (Biacore), antibody captured via antigen peptide, FcγR as analyte; binding relative to GpH7-A5/GpH7-B3/GpL16-k0 = 100
[3] = molecular target: T4, FcγRIIIa extracellular domain with …; assay: as above
[4] = molecular target: T2, FcγRIIa H (FcγRIIa type H, His at …); assay: ratio of He/Con_2aH (FcγRIIa H) to He/Con_2b (FcγRIIb), SPR relative binding
Description: as §1, §2

[5] = molecular target: T2, FcγRIIa H (FcγRIIa type H, His at …); assay: SPR (Biacore), antibody captured on antigen-peptide chip, FcγR as analyte; GpH7-A5/GpH7-B3/GpL16-k0 = 100
Description: as §1, §2

[6] = molecular target: T3, FcγRIIb, extracellular domain with …; assay: as above
Description: as §1, §2

T4 sequence (P08637 17-208): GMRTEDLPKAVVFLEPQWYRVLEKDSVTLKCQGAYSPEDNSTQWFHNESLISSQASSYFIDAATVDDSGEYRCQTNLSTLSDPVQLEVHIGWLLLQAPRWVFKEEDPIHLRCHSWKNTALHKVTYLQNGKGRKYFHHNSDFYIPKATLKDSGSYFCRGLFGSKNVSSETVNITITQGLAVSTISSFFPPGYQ

IIIa/IIb (He_3a/2b) [1] | He/Con_2b [2] | He/Con_3a [3] | He_2aH/2b (IIaH/IIb ratio) [4] | He/Con_2aH (relative binding activity) [5] | He/Con_2b (relative binding activity) [6] | Binder
1.34 | 60.8 relative (control = 100) | 81.5 relative (control = 100) | – | – | – | B1
– | – | – | 0.56 | 114 % of control | 206 % of control | B2
1.28 | 44.2 relative (control = 100) | 56.7 relative (control = 100) | – | – | – | B3
1.4 | 40.3 relative (control = 100) | 56.5 relative (control = 100) | – | – | – | B4
1.7 | 48 relative (control = 100) | 81.9 relative (control = 100) | – | – | – | B5
1.32 | 79.7 relative (control = 100) | 106 relative (control = 100) | – | – | – | B6
1.28 | 58.1 relative (control = 100) | 74.1 relative (control = 100) | – | – | – | B7
